# Reference: US20220218785A1 (ALPINE IMMUNE SCIENCES, published 2022)
# Numbering of substitutions follows the chain as printed. In names and notes the source's numbering stands. Like-named read-outs stand apart in the source and are kept apart here.
# B1: ICOSL ECD Truncation #7 with N52H/N57Y/Q100R/F172S, Fc fusion (Fc fusion)
# chain: DTQEKEVRAMVGSDVELSCACPEGSRFDLNDVYVYWQTSESKTVVTYHIPQHSSLEYVDSRYRNRALMSPAGMLRGDFSLRLFNVTPQDEQKFHCLVLSRSLGFQEVLSVEVTLHVAANFSVPVVSAPHSPSQDELTFTCTSINGYPRPNVYWINKTDNSLLDQALQNDTVSLNMRGLYDVVSVLRIARTPSVNIGCCIENGGGGSGGGGSEPKSSDKTHTCPPCPAPEAEGAPSVFLFPPKPKDTLMISRTPEVTCVVVDVSHEDPEVKFNWYVDGVEVHNAKTKPREEQYNSTYRVVSVLTVLHQDWLNGKEYKCKVSNKALPAPIEKTISKAKGQPREPQVYTLPPSREEMTKNQVSLTCLVKGFYPSDIAVEWESNGQPENNYKTTPPVLDSDGSFFLYSKLTVDKSRWQQGNVFSCSVMHEALHNHYTQKSLSLSPG
# B2: variant ICOSL ECD-Fc N52H/N57Y/Q100R/F172S, G4S linker, Fc C220S/L234A/L235E/G237A (SEQ ID NO: 40) (Fc fusion)
# chain: DTQEKEVRAMVGSDVELSCACPEGSRFDLNDVYVYWQTSESKTVVTYHIPQHSSLEYVDSRYRNRALMSPAGMLRGDFSLRLFNVTPQDEQKFHCLVLSRSLGFQEVLSVEVTLHVAANFSVPVVSAPHSPSQDELTFTCTSINGYPRPNVYWINKTDNSLLDQALQNDTVSLNMRGLYDVVSVLRIARTPSVNIGCCIENVLLQQNLTVGSQTGNDIGERDKITENPVSTGEKNAATGGGGSEPKSSDKTHTCPPCPAPEAEGAPSVFLFPPKPKDTLMISRTPEVTCVVVDVSHEDPEVKFNWYVDGVEVHNAKTKPREEQYNSTYRVVSVLTVLHQDWLNGKEYKCKVSNKALPAPIEKTISKAKGQPREPQVYTLPPSREEMTKNQVSLTCLVKGFYPSDIAVEWESNGQPENNYKTTPPVLDSDGSFFLYSKLTVDKSRWQQGNVFSCSVMHEALHNHYTQKSLSLSPGK
# notes: Made in 293 cells; Fc or allotypes thereof
# B3: variant ICOSL ECD-Fc N52H/N57Y/Q100P, G4S linker, Fc C220S/L234A/L235E/G237A (SEQ ID NO: 40) (Fc fusion)
# chain: B2 chain with R100P, S172F
# notes: as for B2
# B4: ICOSL ECD Truncation #4 with N52H/N57Y/Q100R/F172S, Fc fusion (Fc fusion)
# chain: DTQEKEVRAMVGSDVELSCACPEGSRFDLNDVYVYWQTSESKTVVTYHIPQHSSLEYVDSRYRNRALMSPAGMLRGDFSLRLFNVTPQDEQKFHCLVLSRSLGFQEVLSVEVTLHVAANFSVPVVSAPHSPSQDELTFTCTSINGYPRPNVYWINKTDNSLLDQALQNDTVSLNMRGLYDVVSVLRIARTPSVNIGCCIENVLLQQNGGGGSGGGGSEPKSSDKTHTCPPCPAPEAEGAPSVFLFPPKPKDTLMISRTPEVTCVVVDVSHEDPEVKFNWYVDGVEVHNAKTKPREEQYNSTYRVVSVLTVLHQDWLNGKEYKCKVSNKALPAPIEKTISKAKGQPREPQVYTLPPSREEMTKNQVSLTCLVKGFYPSDIAVEWESNGQPENNYKTTPPVLDSDGSFFLYSKLTVDKSRWQQGNVFSCSVMHEALHNHYTQKSLSLSPG
# B5: ICOSL IgV with N52H/N57Y/Q100R, Fc fusion with (G4S)2 linker (Fc fusion)
# chain: DTQEKEVRAMVGSDVELSCACPEGSRFDLNDVYVYWQTSESKTVVTYHIPQHSSLEYVDSRYRNRALMSPAGMLRGDFSLRLFNVTPQDEQKFHCLVLSRSLGFQEVLSVEVTLHVAANFSVGGGGSGGGGSEPKSSDKTHTCPPCPAPEAEGAPSVFLFPPKPKDTLMISRTPEVTCVVVDVSHEDPEVKFNWYVDGVEVHNAKTKPREEQYNSTYRVVSVLTVLHQDWLNGKEYKCKVSNKALPAPIEKTISKAKGQPREPQVYTLPPSREEMTKNQVSLTCLVKGFYPSDIAVEWESNGQPENNYKTTPPVLDSDGSFFLYSKLTVDKSRWQQGNVFSCSVMHEALHNHYTQKSLSLSPG
# notes: also called ICOSCL IgV with N52H/N57Y/Q100R
# B6: ICOSL ECD with N52H/N57Y/Q100R/F172S, Fc fusion with (G4S)2 linker (Fc fusion)
# chain: DTQEKEVRAMVGSDVELSCACPEGSRFDLNDVYVYWQTSESKTVVTYHIPQHSSLEYVDSRYRNRALMSPAGMLRGDFSLRLFNVTPQDEQKFHCLVLSRSLGFQEVLSVEVTLHVAANFSVPVVSAPHSPSQDELTFTCTSINGYPRPNVYWINKTDNSLLDQALQNDTVSLNMRGLYDVVSVLRIARTPSVNIGCCIENVLLQQNLTVGSQTGNDIGERDKITENPVSTGEKNAATGGGGSGGGGSEPKSSDKTHTCPPCPAPEAEGAPSVFLFPPKPKDTLMISRTPEVTCVVVDVSHEDPEVKFNWYVDGVEVHNAKTKPREEQYNSTYRVVSVLTVLHQDWLNGKEYKCKVSNKALPAPIEKTISKAKGQPREPQVYTLPPSREEMTKNQVSLTCLVKGFYPSDIAVEWESNGQPENNYKTTPPVLDSDGSFFLYSKLTVDKSRWQQGNVFSCSVMHEALHNHYTQKSLSLSPG
# notes: also called ICOSCL ECD with N52H/N57Y/Q100R/F1725
# B7: ICOSL ECD with N52H/N57Y/Q100R/C198R, Fc C220S/L234A/L235E/G237A (SEQ ID NO: 40) (Fc fusion, not shown: small tags and cut ends)
# chain (part 1 of 2): DTQEKEVRAMVGSDVELSCACPEGSRFDLNDVYVYWQTSESKTVVTYHIPQHSSLEYVDSRYRNRALMSPAGMLRGDFSLRLFNVTPQDEQKFHCLVLSRSLGFQEVLSVEVTLHVAANFSVPVVSAPHSPSQDELTFTCTSINGYPRPNVYWINKTDNSLLDQALQNDTVFLNMRGLYDVVSVLRIARTPSVNIGCRIENVLLQQNLTVGSQTGNDIGERDKITENPVSTGEKNAAT
# chain (part 2 of 2): EPKSSDKTHTCPPCPAPEAEGAPSVFLFPPKPKDTLMISRTPEVTCVVVDVSHEDPEVKFNWYVDGVEVHNAKTKPREEQYNSTYRVVSVLTVLHQDWLNGKEYKCKVSNKALPAPIEKTISKAKGQPREPQVYTLPPSREEMTKNQVSLTCLVKGFYPSDIAVEWESNGQPENNYKTTPPVLDSDGSFFLYSKLTVDKSRWQQGNVFSCSVMHEALHNHYTQKSLSLSPGK
# Legend:
# [1] = molecular target: CD80 (ligand of the blocking assay) (UniProt P33681); assay: competition, flow cytometry: CD80 on CHO cells expressing CD28
# [2] = molecular target: CD86 labeled with AlexaFluor-647 (UniProt P42081); assay: competition, flow cytometry: labelled CD86 on CHO cells expressing CD28
# [3] = molecular target: human CD28 (human) (UniProt P10747); assay: flow cytometry, cells with human CD28; protein from CHO
# [4] = molecular target: T1, human ICOS (human, UniProt Q9Y6W8 21-199); assay: flow cytometry, cells with human ICOS; protein from CHO
# T1 construct: whole, on cells
# T1 sequence (looked up): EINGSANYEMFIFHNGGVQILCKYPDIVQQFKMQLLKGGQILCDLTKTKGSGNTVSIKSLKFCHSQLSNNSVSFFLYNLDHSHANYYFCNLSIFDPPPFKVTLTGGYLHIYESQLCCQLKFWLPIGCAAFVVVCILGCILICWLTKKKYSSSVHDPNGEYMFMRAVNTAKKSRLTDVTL
# [5] = molecular target: T2, human CTLA-4 (human, UniProt P16410 36-223); assay: flow cytometry, cells with human CTLA-4; protein from CHO
# T2 construct: whole, on cells
# [6] = molecular target: human CD28, full-length, on transfected cells (human) (UniProt P10747); assay: flow cytometry on transfected HEK293 cells
# [7] = molecular target: T3, human CD28 (human, UniProt P10747 19-220); assay: flow cytometry, cells with human CD28; protein from 293
# T3 construct: whole, on cells
# [8] = molecular target: T3, human CD28; assay: flow cytometry, cells with human CD28; protein from CHO
# [9] = molecular target: T1, human ICOS; assay: flow cytometry, cells with human ICOS; protein from 293
# [10] = molecular target: T1, human ICOS; assay: flow cytometry, cells with human ICOS; protein from CHO; remark: listed apart in the source
# [11] = molecular target: T2, human CTLA-4; assay: flow cytometry, cells with human CTLA-4; protein from 293
# [12] = molecular target: T2, human CTLA-4; assay: flow cytometry, cells with human CTLA-4; protein from CHO; remark: listed apart in the source
# [13] = molecular target: T3, human CD28; assay: flow cytometry, Expi293 cells with human CD28
# Excerpt: (§1) Expi293 cells transfected with cognate binding partners, human CD28, ICOS and CTLA4, were used as target cells in binding studies.
# [14] = molecular target: T1, human ICOS; assay: flow cytometry, Expi293 cells with human ICOS
# Protocol: Binding studies were carried out on transfected HEK293 cells generated to express the full-length mammalian (human) surface ligands, CD28, ICOS or CTLA-4, using a transient transfection system (Life Technologies, USA). As a control, binding to mock (non-transfected) cells also was assessed. For staining by flow cytometry, 200,000 cells of appropriate transient transfection or negative control (mock) were plated in 96 well round bottom plates, and, then incubated in staining buffer (PBS, phosphate buffered saline; 1% BSA, bovine serum albumin; and 0.1% sodium azide) for 20 minutes to block non-specific binding. Cells were resuspended in staining buffer containing 100 nM to 1 nM variant immunomodulatory protein in 50 μL. Mean Fluorescence Intensity (MFI) was calculated for each transfectant and negative parental line with Cell Quest Pro software (Becton Dickinson, USA) or a Hypercyt flow cytometer (Intellicyte, USA).
# as §1
# [15] = molecular target: T2, human CTLA-4; assay: flow cytometry, Expi293 cells with human CTLA-4
# Excerpt: as §1
# [16] = molecular target: T3, human CD28; assay: flow cytometry, cells with human CD28; protein from CHO; remark: listed apart in the source
# [17] = molecular target: T1, human ICOS; assay: flow cytometry, cells with human ICOS; protein from CHO; remark: listed apart in the source
# [18] = molecular target: T2, human CTLA-4; assay: flow cytometry, cells with human CTLA-4; protein from CHO; remark: listed apart in the source
# T2 sequence (P16410 36-223): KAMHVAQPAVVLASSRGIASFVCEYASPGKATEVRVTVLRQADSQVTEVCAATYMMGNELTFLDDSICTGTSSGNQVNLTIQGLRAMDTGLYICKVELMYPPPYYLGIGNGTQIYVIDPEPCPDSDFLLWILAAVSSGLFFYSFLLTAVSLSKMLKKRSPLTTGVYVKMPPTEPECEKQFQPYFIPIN
# CD86 labeled with AlexaFluor-647, sequence (P42081 24-247 limits assumed): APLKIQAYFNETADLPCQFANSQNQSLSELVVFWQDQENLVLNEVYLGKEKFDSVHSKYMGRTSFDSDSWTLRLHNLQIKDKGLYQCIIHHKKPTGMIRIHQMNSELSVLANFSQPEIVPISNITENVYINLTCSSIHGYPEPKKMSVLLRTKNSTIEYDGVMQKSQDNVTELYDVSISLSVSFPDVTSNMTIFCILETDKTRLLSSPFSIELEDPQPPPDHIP
# CD80 (ligand of the blocking assay), sequence (P33681 35-242 limits assumed): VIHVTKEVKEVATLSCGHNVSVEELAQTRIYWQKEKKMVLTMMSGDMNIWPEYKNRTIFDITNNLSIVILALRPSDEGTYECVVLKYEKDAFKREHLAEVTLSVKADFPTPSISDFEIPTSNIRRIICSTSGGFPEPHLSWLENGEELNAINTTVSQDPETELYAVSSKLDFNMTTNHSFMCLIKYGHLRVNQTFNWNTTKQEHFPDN
Molecule,MFI (ΔWT) [7],MFI (ΔWT) [8],MFI (ΔWT) [9],MFI (ΔWT) [10],MFI (ΔWT) [11],MFI (ΔWT) [12],MFI (ΔWT) [16],MFI (ΔWT) [17],MFI (ΔWT) [18],further results
belatacept (Fc fusion),–,–,–,–,–,–,–,–,–,IC50 [1]: 2.5 nM; IC50 [2]: 2.8 nM
ICOSL ECD Truncation #8 with N207G/L208G and N52H/N57Y/Q100R/C198R and Y151H (from UniProt O75144 19-224) (Fc fusion),–,–,–,–,–,–,–,–,–,MFI [3]: 94200 MFI; MFI (ΔWT) [3]: 54.5 fold vs WT; MFI [4]: 143000 MFI; MFI [5]: 368000 MFI; MFI (ΔWT) [5]: 48.6 fold vs WT
"variant ICOSL ECD-Fc M10I, S13G, N52H, N57Y, D77G, V110A, H129P, I143V, F172S, V193M, C198R (Fc fusion)",–,–,–,–,–,–,–,–,–,MFI [6]: 6000 MFI
B1,3.4 fold vs WT,3.7 fold vs WT,0.7 fold vs WT,0.7 fold vs WT,0.8 fold vs WT,0.7 fold vs WT,–,–,–,–
B2,–,–,–,–,–,–,–,–,–,MFI (ΔWT) [13]: 12.9 fold vs WT; MFI (ΔWT) [14]: 1.4 fold vs WT; MFI (ΔWT) [15]: 22.7 fold vs WT
B3,–,–,–,–,–,–,–,–,–,MFI (ΔWT) [13]: 13.4 fold vs WT; MFI (ΔWT) [14]: 1.3 fold vs WT; MFI (ΔWT) [15]: 17.1 fold vs WT
B4,4.1 fold vs WT,3.6 fold vs WT,0.6 fold vs WT,0.7 fold vs WT,0.7 fold vs WT,0.7 fold vs WT,39.7 fold vs WT,1.3 fold vs WT,49.8 fold vs WT,–
B5,4.7 fold vs WT,4.9 fold vs WT,0.8 fold vs WT,0.7 fold vs WT,0.8 fold vs WT,0.7 fold vs WT,49 fold vs WT,1.2 fold vs WT,27 fold vs WT,–
B6,3.6 fold vs WT,4.1 fold vs WT,1.4 fold vs WT,1.1 fold vs WT,0.7 fold vs WT,0.7 fold vs WT,63.9 fold vs WT,1.4 fold vs WT,42.6 fold vs WT,–
B7,–,–,–,0.7 fold vs WT,0.7 fold vs WT,0.7 fold vs WT,–,–,–,MFI [10]: 7700 MFI; MFI [11]: 8720 MFI; MFI [12]: 8750 MFI
